Reference: the supplement of paper PMC7125110
± gives the standard error. Variants at the floor of the assay were thinned out.

B1: glmS ribozyme (parent)
chain: AUAAAAGCGCCAGAACUACAGAAAUGUAGUUGACGAGGAGGAGGUUUAUCGAAUUUUCGGCGGAUGCCUCCAAA

Legend:
Conditions in all cases: with glucosamine-6-phosphate
[1] = variants of: B1; test: self-cleavage kobs at 40 uM GlcN6P; higher = faster cleavage; RNA array
Method in brief: (§1)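 Glucosamine-6-phosphate in HEPES/KCl/Mg(OAc)2 buffer, at 40 μM to 10 mM, was flowed over barcoded ribozyme variants transcribed in situ by E. coli RNA polymerase on sequenced MiSeq chips. Tracking was through a hybridised Cy3 probe at 37 °C. kobs, kcat and KM came from exponential decay fits and weighted Michaelis–Menten fits of normalised per-tile medians.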

[2] = variants of: B1; test: self-cleavage kobs at 160 uM GlcN6P; higher = faster cleavage; RNA array
Method in brief: as §1

[3] = variants of: B1; test: self-cleavage kobs at 640 uM GlcN6P; higher = faster cleavage; RNA array
Method in brief: as §1

[4] = variants of: B1; test: self-cleavage kobs at 2500 uM GlcN6P; higher = faster cleavage; RNA array
Method in brief: as §1

[5] = variants of: B1; test: self-cleavage kobs at 10000 uM GlcN6P; higher = faster cleavage; RNA array
Method in brief: as §1

Variant | self-cleavage kobs at 40 uM GlcN6P [1] | self-cleavage kobs at 160 uM GlcN6P [2] | self-cleavage kobs at 640 uM GlcN6P [3] | self-cleavage kobs at 2500 uM GlcN6P [4] | self-cleavage kobs at 10000 uM GlcN6P [5]
A12U C16U G62A | < 1e-05 s⁻¹ | – | – | – | –
G35U U54A | < 1e-05 s⁻¹ | < 1e-05 s⁻¹ | < 1e-05 s⁻¹ | < 1e-05 s⁻¹ | –
C8A C50G | 5.03e-05 ± 1.7e-05 s⁻¹ | 0.000112 ± 3.3e-05 s⁻¹ | 0.00101 ± 0.00048 s⁻¹ | 9.84e-05 ± 2.6e-05 s⁻¹ | –
G35U C67G C71A | < 1e-05 s⁻¹ | – | – | – | –
C67A C71U | 7.16e-05 ± 5.5e-06 s⁻¹ | 0.000151 ± 1.3e-05 s⁻¹ | 0.000414 ± 4.1e-05 s⁻¹ | 0.000679 ± 7.6e-05 s⁻¹ | 0.00183 ± 0.00025 s⁻¹
A6C C11G A12G C70U | < 1e-05 s⁻¹ | – | – | – | –
C11G U57G | < 1e-05 s⁻¹ | < 1e-05 s⁻¹ | – | < 1e-05 s⁻¹ | < 1e-05 s⁻¹
C10U G13C A36C | < 1e-05 s⁻¹ | – | – | – | –
C8G G9C U55A | < 1e-05 s⁻¹ | – | < 1e-05 s⁻¹ | < 1e-05 s⁻¹ | < 1e-05 s⁻¹
G32U A64G C71U | < 1e-05 s⁻¹ | – | – | 0.000459 ± 0.00016 s⁻¹ | 0.000175 ± 3.6e-05 s⁻¹
C16A C50G C68U | 0.000143 ± 3.6e-05 s⁻¹ | – | – | – | 0.000227 ± 6.2e-05 s⁻¹
A12U A15U C16A G41A G66A | < 1e-05 s⁻¹ | – | – | – | –
A53U U55A C67G | 0.000155 ± 4.4e-05 s⁻¹ | – | – | – | 0.00212 ± 0.00067 s⁻¹
A15G U49G | 4.65e-05 ± 2e-05 s⁻¹ | 0.000118 ± 3.1e-05 s⁻¹ | 0.000228 ± 4.3e-05 s⁻¹ | 0.000499 ± 0.0001 s⁻¹ | 0.00148 ± 0.00024 s⁻¹
A36U U47G C70G | 6.62e-05 ± 2.4e-05 s⁻¹ | – | – | – | 4.91e-05 ± 1.4e-05 s⁻¹
C34G A53G U56G C67U | < 1e-05 s⁻¹ | – | – | – | –
G37C C50U G66U | < 1e-05 s⁻¹ | – | – | – | < 1e-05 s⁻¹
U46C G62U | < 1e-05 s⁻¹ | < 1e-05 s⁻¹ | – | – | < 1e-05 s⁻¹
G13C U31C C71U | 4.32e-05 ± 2e-05 s⁻¹ | – | – | – | 0.00114 ± 0.00023 s⁻¹
C11U G35A | < 1e-05 s⁻¹ | < 1e-05 s⁻¹ | < 1e-05 s⁻¹ | < 1e-05 s⁻¹ | < 1e-05 s⁻¹
A33G U45C | < 1e-05 s⁻¹ | – | < 1e-05 s⁻¹ | < 1e-05 s⁻¹ | –
A39U U45A | 0.000759 ± 9.8e-05 s⁻¹ | 0.00209 ± 0.00053 s⁻¹ | 0.0067 ± 0.0015 s⁻¹ | 0.0135 ± 0.0033 s⁻¹ | 0.0807 ± 0.02 s⁻¹
A15G U25A C50G C70U | 6.43e-05 ± 1.3e-05 s⁻¹ | – | – | – | 6.03e-05 ± 1.6e-05 s⁻¹

Variant | self-cleavage kobs at 40 uM GlcN6P [1] | self-cleavage kobs at 160 uM GlcN6P [2] | self-cleavage kobs at 640 uM GlcN6P [3] | self-cleavage kobs at 2500 uM GlcN6P [4] | self-cleavage kobs at 10000 uM GlcN6P [5]
U30G A36U C50G C67U | 0.000201 ± 3.9e-05 s⁻¹ | – | – | – | 0.00055 ± 0.00011 s⁻¹
A6U C50A | < 1e-05 s⁻¹ | < 1e-05 s⁻¹ | < 1e-05 s⁻¹ | – | –
A14C C34A C67U | < 1e-05 s⁻¹ | – | – | < 1e-05 s⁻¹ | < 1e-05 s⁻¹
C34A C71A | < 1e-05 s⁻¹ | – | < 1e-05 s⁻¹ | – | < 1e-05 s⁻¹
A12C C16G A36U | < 1e-05 s⁻¹ | – | – | – | < 1e-05 s⁻¹
U65A C71A | 5.65e-05 ± 2.4e-05 s⁻¹ | – | – | 0.0012 ± 0.00041 s⁻¹ | 0.00104 ± 0.00039 s⁻¹
C34A C50U | < 1e-05 s⁻¹ | < 1e-05 s⁻¹ | < 1e-05 s⁻¹ | < 1e-05 s⁻¹ | < 1e-05 s⁻¹
A48U A52G G63A | < 1e-05 s⁻¹ | – | – | – | < 1e-05 s⁻¹
A6G G35A C67U U69A | < 1e-05 s⁻¹ | < 1e-05 s⁻¹ | < 1e-05 s⁻¹ | < 1e-05 s⁻¹ | < 1e-05 s⁻¹
A6U G38U A48U A52G C68A U69G | 7.26e-05 ± 3.3e-05 s⁻¹ | – | – | – | 8.71e-05 ± 2.3e-05 s⁻¹
A42C U49A | < 1e-05 s⁻¹ | < 1e-05 s⁻¹ | < 1e-05 s⁻¹ | < 1e-05 s⁻¹ | –
G35U G37A | < 1e-05 s⁻¹ | – | < 1e-05 s⁻¹ | < 1e-05 s⁻¹ | –
C10G U47G C70U C71G | < 1e-05 s⁻¹ | – | 0.00148 ± 0.00064 s⁻¹ | – | –
C34U G41A C50U C68U | < 1e-05 s⁻¹ | – | – | < 1e-05 s⁻¹ | –
C67U C71G | 1.88e-05 ± 9.1e-06 s⁻¹ | 3.83e-05 ± 1.2e-05 s⁻¹ | 4.78e-05 ± 5.4e-06 s⁻¹ | 0.00068 ± 0.00033 s⁻¹ | 5.12e-05 ± 5.1e-06 s⁻¹
G38C C58U | < 1e-05 s⁻¹ | – | < 1e-05 s⁻¹ | < 1e-05 s⁻¹ | < 1e-05 s⁻¹
U47G U56G G63U | < 1e-05 s⁻¹ | – | – | – | –
A52G G62C | < 1e-05 s⁻¹ | < 1e-05 s⁻¹ | < 1e-05 s⁻¹ | – | < 1e-05 s⁻¹
G13A C16G A64U | < 1e-05 s⁻¹ | – | – | – | –
G7U U30A | < 1e-05 s⁻¹ | < 1e-05 s⁻¹ | < 1e-05 s⁻¹ | < 1e-05 s⁻¹ | –
C10A U47C U54C G66U | < 1e-05 s⁻¹ | – | – | – | < 1e-05 s⁻¹
A48U G60C C61U | < 1e-05 s⁻¹ | – | < 1e-05 s⁻¹ | – | –
